Assay results published in publication PMC8603391 (European biophysics journal : EBJ, 2015).

Columns and labels:
[1] = target: T1, Myosin 16 ankyrin domain (My16Ank), GST tag cleaved (Rattus norvegicus, UniProt Q9ERC1-1 1-402); assay: SPR
T1 sequence (looked up): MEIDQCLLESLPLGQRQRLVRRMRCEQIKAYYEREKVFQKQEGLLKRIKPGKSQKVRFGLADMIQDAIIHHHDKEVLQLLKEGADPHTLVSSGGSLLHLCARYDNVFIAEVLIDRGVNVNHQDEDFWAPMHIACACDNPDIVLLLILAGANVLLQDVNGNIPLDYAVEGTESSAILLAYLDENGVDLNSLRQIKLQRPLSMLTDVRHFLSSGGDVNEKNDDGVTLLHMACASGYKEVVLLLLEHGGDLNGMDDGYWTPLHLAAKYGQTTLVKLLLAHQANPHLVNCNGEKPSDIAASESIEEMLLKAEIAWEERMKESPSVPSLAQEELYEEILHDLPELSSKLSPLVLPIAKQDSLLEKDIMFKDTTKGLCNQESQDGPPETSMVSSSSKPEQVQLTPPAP

[2] = target: T2, GST-My16Ank (uncleaved glutathione S-transferase fusion of the myosin 16 ankyrin domain) (Rattus norvegicus, UniProt Q9ERC1-1 1-402); assay: SPR
T2 sequence (looked up): T1 sequence (looked up)

B1: recombinant His-tagged PP1cδ (protein phosphatase-1 catalytic subunit, δ isoform) (enzyme, UniProt P62140 1-327, looked up)
chain: MADGELNVDSLITRLLEVRGCRPGKIVQMTEAEVRGLCIKSREIFLSQPILLELEAPLKICGDIHGQYTDLLRLFEYGGFPPEANYLFLGDYVDRGKQSLETICLLLAYKIKYPENFFLLRGNHECASINRIYGFYDECKRRFNIKLWKTFTDCFNCLPIAAIVDEKIFCCHGGLSPDLQSMEQIRRIMRPTDVPDTGLLCDLLWSDPDKDVQGWGENDRGVSFTFGADVVSKFLNRHDLDLICRAHQVVEDGYEFFAKRQLVTLFSAPNYCGEFDNAGGMMSVDETLMCSFQILKPSEKKAKYQYGGLNSGRPVTPPRTANPPKKR
Ka [1]: 1.65e+06 M⁻¹ | Ka [2]: 3.04e+06 M⁻¹ | Kd [2]: 329 nM | koff [2]: 0.000473 s⁻¹ | kon [2]: 1440 M⁻¹ s⁻¹
